Laboratory results reported in publication PMC7360973.

Assays:
Details in all cases: remark: other sources report otherwise
[1] = target: T1, Human heat shock transcription factor 1 (Hsf1), wild type (human), Q00613; assay: native gel or EMSA; blue-native PAGE (8% gel, on ice) of purified Hsf1 wild type or variants, also after 10 min at 4–42°C (5 μM protein); Coomassie stain or immunoblot with Hsf1 antiserum
T1 chain: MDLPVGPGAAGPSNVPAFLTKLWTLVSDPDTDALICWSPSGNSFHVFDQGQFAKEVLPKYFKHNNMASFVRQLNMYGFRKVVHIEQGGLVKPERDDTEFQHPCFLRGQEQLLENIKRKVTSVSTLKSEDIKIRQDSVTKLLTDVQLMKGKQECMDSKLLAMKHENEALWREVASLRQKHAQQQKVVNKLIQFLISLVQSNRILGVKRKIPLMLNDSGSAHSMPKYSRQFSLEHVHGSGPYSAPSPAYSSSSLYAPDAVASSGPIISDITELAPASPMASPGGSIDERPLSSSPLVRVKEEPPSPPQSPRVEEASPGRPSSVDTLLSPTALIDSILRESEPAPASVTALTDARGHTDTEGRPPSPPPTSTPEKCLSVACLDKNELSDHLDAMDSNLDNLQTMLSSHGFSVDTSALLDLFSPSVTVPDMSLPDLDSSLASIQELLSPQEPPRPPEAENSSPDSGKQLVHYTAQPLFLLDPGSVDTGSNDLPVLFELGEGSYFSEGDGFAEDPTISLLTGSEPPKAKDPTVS

[2] = target: T1, Human heat shock transcription factor 1 …; assay: SEC + native gel or EMSA; trimer-to-monomer ratio of freshly purified Hsf1 in the absence of heat shock, by gel filtration (Superdex 200) and BN-PAGE
[3] = target: T2, Hsf1 wild type expressed from pIRES‐HSF1_hrGFP in cells (human), Q00613; assay: native gel or EMSA; blue-native PAGE of lysates (15 μg total protein) of transfected HSF1−/− MEFs, immunoblot with Hsf1 antiserum
T2 chain: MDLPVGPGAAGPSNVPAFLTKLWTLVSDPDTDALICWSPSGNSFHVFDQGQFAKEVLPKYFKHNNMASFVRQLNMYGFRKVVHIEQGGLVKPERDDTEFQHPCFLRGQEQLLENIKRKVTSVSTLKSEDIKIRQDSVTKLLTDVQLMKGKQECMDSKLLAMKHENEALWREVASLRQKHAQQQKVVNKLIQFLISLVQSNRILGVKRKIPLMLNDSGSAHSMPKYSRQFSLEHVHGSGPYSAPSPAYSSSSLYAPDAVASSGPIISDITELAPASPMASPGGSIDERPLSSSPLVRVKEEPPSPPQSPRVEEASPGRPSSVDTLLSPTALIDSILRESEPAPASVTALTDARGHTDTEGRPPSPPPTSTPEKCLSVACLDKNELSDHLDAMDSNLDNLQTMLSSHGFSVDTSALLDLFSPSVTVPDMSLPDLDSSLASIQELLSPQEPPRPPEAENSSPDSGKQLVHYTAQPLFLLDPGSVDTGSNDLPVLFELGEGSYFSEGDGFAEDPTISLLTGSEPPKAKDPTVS

Binder	stoichiometry N [1]	stoichiometry N [2]	stoichiometry N [3]
Human heat shock transcription factor 1 (Hsf1), wild type, Q00613 1-529 (natural protein) MDLPVGPGAAGPSNVPAFLTKLWTLVSDPDTDALICWSPSGNSFHVFDQGQFAKEVLPKYFKHNNMASFVRQLNMYGFRKVVHIEQGGLVKPERDDTEFQHPCFLRGQEQLLENIKRKVTSVSTLKSEDIKIRQDSVTKLLTDVQLMKGKQECMDSKLLAMKHENEALWREVASLRQKHAQQQKVVNKLIQFLISLVQSNRILGVKRKIPLMLNDSGSAHSMPKYSRQFSLEHVHGSGPYSAPSPAYSSSSLYAPDAVASSGPIISDITELAPASPMASPGGSIDERPLSSSPLVRVKEEPPSPPQSPRVEEASPGRPSSVDTLLSPTALIDSILRESEPAPASVTALTDARGHTDTEGRPPSPPPTSTPEKCLSVACLDKNELSDHLDAMDSNLDNLQTMLSSHGFSVDTSALLDLFSPSVTVPDMSLPDLDSSLASIQELLSPQEPPRPPEAENSSPDSGKQLVHYTAQPLFLLDPGSVDTGSNDLPVLFELGEGSYFSEGDGFAEDPTISLLTGSEPPKAKDPTVS	3	3	
Hsf1 wild type expressed from pIRES‐HSF1_hrGFP in cells, Q00613 1-529 (natural protein) MDLPVGPGAAGPSNVPAFLTKLWTLVSDPDTDALICWSPSGNSFHVFDQGQFAKEVLPKYFKHNNMASFVRQLNMYGFRKVVHIEQGGLVKPERDDTEFQHPCFLRGQEQLLENIKRKVTSVSTLKSEDIKIRQDSVTKLLTDVQLMKGKQECMDSKLLAMKHENEALWREVASLRQKHAQQQKVVNKLIQFLISLVQSNRILGVKRKIPLMLNDSGSAHSMPKYSRQFSLEHVHGSGPYSAPSPAYSSSSLYAPDAVASSGPIISDITELAPASPMASPGGSIDERPLSSSPLVRVKEEPPSPPQSPRVEEASPGRPSSVDTLLSPTALIDSILRESEPAPASVTALTDARGHTDTEGRPPSPPPTSTPEKCLSVACLDKNELSDHLDAMDSNLDNLQTMLSSHGFSVDTSALLDLFSPSVTVPDMSLPDLDSSLASIQELLSPQEPPRPPEAENSSPDSGKQLVHYTAQPLFLLDPGSVDTGSNDLPVLFELGEGSYFSEGDGFAEDPTISLLTGSEPPKAKDPTVS			3
